Measured values taken from article PMC2691818.

Columns and labels:
[1] = target: T1, h-mtTFA full-length (mature) (Homo sapiens, UniProt Q00059 43-246); assay: EMSA
T1 sequence: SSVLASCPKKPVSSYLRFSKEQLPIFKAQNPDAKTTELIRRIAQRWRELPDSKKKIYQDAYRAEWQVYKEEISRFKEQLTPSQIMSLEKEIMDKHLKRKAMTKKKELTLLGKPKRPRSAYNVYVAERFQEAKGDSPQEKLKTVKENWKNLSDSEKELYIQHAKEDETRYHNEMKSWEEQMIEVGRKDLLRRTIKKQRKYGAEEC

h-mtTFA1-179 [2] = target: T2, h-mtTFA1-179 (Homo sapiens, UniProt Q00059 43-221); assay: EMSA
T2 sequence: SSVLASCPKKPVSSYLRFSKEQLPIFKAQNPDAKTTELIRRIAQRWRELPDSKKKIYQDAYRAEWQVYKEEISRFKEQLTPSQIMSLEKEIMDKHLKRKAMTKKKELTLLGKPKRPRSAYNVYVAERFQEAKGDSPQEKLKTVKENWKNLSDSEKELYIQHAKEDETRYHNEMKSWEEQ

h-mtTFA1-179 [3] = target: T2, h-mtTFA1-179; assay: competition
[4] = target: T3, h-mtTFA box B (mtTFA110-179) (Homo sapiens, UniProt Q00059 152-221); assay: EMSA
T3 sequence: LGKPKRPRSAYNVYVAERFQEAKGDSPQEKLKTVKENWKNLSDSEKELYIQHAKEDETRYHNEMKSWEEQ

B1: 30 bp LSP DNA, 32P-labeled (dsDNA)
DNA 1: GTGTTAGTTGGGGGGTGACTGTTAAAAGTG
DNA 2: CACTTTTAACAGTCACCCCCCAACTAACAC
With B1 as the binder, how does the Kd [1] read?
Its Kd is 5.4 ± 0.6 nM.

What about the Kd (h-mtTFA1-179 [2]) of the same binder?
Its Kd is 12 ± 1.7 nM.

B2: 30 bp scrambled nonspecific DNA (NS DNA) (dsDNA)
DNA 1: ACTACTAACAGACCGCAACCTAAACACAAC
DNA 2: GTTGTGTTTAGGTTGCGGTCTGTTAGTAGT
Does B2 bind (h-mtTFA1-179 [3])?
Result: binds

B3: 30 bp LSP DNA, unlabeled (dsDNA)
DNA 1: GTGTTAGTTGGGGGGTGACTGTTAAAAGTG
DNA 2: CACTTTTAACAGTCACCCCCCAACTAACAC
Does B3 bind [4]?
Result: no binding
